Results on one molecule are retold here after publication PMC2905227 (Journal of the American Chemical Society, 2010).

Holding throughout (test): competitive inhibition of enzyme activity
Test [1] concerns the target T1, [NO2Y730]-α2(C439A) (E. coli, UniProt P00452 1-761, C439A, 3-nitrotyrosine (NO2Y) in place of Y730).
T1 sequence (looked up): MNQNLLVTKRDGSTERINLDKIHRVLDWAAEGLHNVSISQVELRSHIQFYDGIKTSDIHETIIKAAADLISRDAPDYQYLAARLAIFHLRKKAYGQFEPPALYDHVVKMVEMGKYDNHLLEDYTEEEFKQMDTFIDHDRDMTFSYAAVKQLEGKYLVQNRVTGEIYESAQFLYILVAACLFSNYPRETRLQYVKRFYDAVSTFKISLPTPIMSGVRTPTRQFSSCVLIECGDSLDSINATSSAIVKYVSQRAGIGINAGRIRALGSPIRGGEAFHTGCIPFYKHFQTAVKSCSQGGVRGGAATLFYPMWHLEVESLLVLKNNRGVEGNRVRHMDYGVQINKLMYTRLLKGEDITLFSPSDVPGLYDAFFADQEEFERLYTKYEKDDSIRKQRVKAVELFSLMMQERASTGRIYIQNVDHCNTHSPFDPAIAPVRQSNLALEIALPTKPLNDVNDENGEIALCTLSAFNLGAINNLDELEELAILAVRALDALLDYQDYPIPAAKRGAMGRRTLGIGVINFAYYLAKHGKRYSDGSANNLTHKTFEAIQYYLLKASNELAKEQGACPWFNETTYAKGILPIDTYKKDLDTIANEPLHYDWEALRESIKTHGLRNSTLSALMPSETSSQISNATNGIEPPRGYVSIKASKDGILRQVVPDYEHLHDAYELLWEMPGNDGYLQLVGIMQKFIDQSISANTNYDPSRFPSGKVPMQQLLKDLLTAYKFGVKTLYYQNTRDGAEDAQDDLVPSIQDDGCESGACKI

Test [2] has as its target T2, [NO2Y730]-α2(C439S) (E. coli, UniProt P00452 1-761, C439S, 3-nitrotyrosine (NO2Y) in place of Y730).
T2 sequence (looked up): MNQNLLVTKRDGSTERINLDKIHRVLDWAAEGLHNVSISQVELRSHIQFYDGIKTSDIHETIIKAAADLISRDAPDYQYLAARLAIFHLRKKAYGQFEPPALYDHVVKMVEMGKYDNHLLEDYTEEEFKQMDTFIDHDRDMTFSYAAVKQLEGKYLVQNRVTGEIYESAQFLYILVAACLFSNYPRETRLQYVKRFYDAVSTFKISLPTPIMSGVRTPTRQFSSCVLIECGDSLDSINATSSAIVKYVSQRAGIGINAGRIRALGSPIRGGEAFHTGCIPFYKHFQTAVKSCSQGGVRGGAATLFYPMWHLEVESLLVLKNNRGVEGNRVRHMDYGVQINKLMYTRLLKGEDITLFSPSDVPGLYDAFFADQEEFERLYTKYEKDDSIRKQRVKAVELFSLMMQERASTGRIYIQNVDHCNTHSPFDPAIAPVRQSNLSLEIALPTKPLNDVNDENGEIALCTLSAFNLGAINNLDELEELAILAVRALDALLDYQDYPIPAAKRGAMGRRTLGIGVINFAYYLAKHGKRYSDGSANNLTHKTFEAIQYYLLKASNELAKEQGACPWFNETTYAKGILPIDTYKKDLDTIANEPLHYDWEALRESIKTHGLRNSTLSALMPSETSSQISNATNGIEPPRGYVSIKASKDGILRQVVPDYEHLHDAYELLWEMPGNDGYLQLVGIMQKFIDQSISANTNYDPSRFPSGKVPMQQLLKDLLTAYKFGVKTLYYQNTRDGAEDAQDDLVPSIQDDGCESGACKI

For test [3], the target named is T3, wild-type E. coli ribonucleotide reductase α2 subunit (E. coli, UniProt P00452 1-761).
T3 sequence (looked up): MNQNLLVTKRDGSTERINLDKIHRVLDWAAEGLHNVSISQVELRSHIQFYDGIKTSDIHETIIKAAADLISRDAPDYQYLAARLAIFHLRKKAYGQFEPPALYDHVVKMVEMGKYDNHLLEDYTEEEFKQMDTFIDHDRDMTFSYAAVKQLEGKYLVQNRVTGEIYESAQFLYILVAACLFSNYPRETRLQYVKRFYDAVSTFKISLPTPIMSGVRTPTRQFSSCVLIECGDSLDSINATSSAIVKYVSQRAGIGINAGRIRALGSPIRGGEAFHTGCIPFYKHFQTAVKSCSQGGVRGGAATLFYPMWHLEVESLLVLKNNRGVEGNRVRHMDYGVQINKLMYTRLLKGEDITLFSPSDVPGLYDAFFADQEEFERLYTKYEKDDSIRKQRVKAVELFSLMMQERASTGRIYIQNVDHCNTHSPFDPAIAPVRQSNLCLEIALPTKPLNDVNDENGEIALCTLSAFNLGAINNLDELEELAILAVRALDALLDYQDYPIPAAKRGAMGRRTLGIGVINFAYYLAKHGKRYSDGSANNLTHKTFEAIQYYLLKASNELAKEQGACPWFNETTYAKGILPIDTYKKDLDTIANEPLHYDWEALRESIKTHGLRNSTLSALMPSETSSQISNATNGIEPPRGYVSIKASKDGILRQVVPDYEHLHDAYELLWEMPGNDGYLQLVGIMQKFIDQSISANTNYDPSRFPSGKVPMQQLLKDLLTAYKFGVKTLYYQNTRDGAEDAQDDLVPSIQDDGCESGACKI

As a reminder, the Kd is the concentration at which binding is half-saturated.

B1: wild-type E. coli ribonucleotide reductase β2 subunit (enzyme, UniProt P69924 1-376, looked up)
chain: MAYTTFSQTKNDQLKEPMFFGQPVNVARYDQQKYDIFEKLIEKQLSFFWRPEEVDVSRDRIDYQALPEHEKHIFISNLKYQTLLDSIQGRSPNVALLPLISIPELETWVETWAFSETIHSRSYTHIIRNIVNDPSVVFDDIVTNEQIQKRAEGISSYYDELIEMTSYWHLLGEGTHTVNGKTVTVSLRELKKKLYLCLMSVNALEAIRFYVSFACSFAFAERELMEGNAKIIRLIARDEALHLTGTQHMLNLLRSGADDPEMAEIAEECKQECYDLFVQAAQQEKDWADYLFRDGSMIGLNKDILCQYVEYITNIRMQAVGLDLPFQTRSNPIPWINTWLVSDNVQVAPQEVEVSSYLVGQIDSEVDTDDLSNFQL
modifications: tyrosyl radical at Y122 (1-1.2 radicals per β2), diferric cluster
As for B1, the Kd in test [1] was determined as 2070 ± 70 nM; in test [2], 1280 ± 70 nM. The binding result in test [3] is listed as “binds”.
